Experimental data published in the supplement of paper PMC6755084.

B1: F1*; the commonest letter at each place (parent)
chain: GAGACCGCAACTGAAAAGTTGTTATCACTTGTCGTAAGACACTTTGGATGGGTTGAAGTTCTGCACGTAGAAGCAAAAGGC

Variants of: B1
Experiment: fraction ligated after 30 min (ligated reads / total reads); higher = more ligase activity
Conditions: with F1*sub RNA substrate (template-directed ligation), 42 °C
In short: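 The ligase ribozyme variants were produced by PCR amplification of oligo-pool templates, T7 transcription and purification on gel. Their ligated and unligated forms were gel-separated, then reverse transcribed with barcoded primers before MiSeq sequencing. Core bases were filtered at a quality of ≥20, and fraction ligated per variant was ligated reads over total reads.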

Variant | fraction ligated
A36C G38T | 0.838
A36C G38C | 0.838
A36C G38A | 0.846
A37C C42T | 0.857
A37C C42G | 0.833
A37C C42A | 0.849
A36G A41C | 0.795
A36G A41G | 0.788
A36G A41T | 0.834
A36G A48T | 0.0834
A36G A48G | 0.798
A36G A48C | 0.773
A36G T44G | 0.856
A36G T44A | 0.848
A36G T44C | 0.85
A36T A37T | 0.851
A36T A37C | 0.838
A36T A37G | 0.842
A36G T43C | 0.81
A36G T43G | 0.776
A36G T43A | 0.823
A36C G55T | 0.797
A36C G55A | 0.827
A36C G55C | 0.787

Variant | fraction ligated
A37C A41T | 0.816
A37C A41G | 0.79
A37C A41C | 0.759
A36T A57C | 0.823
A36T A57T | 0.824
A36T A57G | 0.841
A36T T45C | 0.783
A36T T45A | 0.778
A36T T45G | 0.385
A36G A37T | 0.872
A36G A37G | 0.864
A36G A37C | 0.835
A37C | 0.849
A36T T44A | 0.844
A36T T44G | 0.847
A36T T44C | 0.82
A37C A39G | 0.833
A37C A39T | 0.807
A37C A39C | 0.782
A36T A41T | 0.819
A36T A41G | 0.794
A36T A41C | 0.774
A37C A48G | 0.795
A37C A48T | 0.775

Variant | fraction ligated
A37C A48C | 0.792
A36T A39G | 0.842
A36T A39C | 0.821
A36T A39T | 0.836
A36G C42G | 0.844
A36G C42T | 0.849
A36G C42A | 0.836
A36T A48T | 0.792
A36T A48G | 0.781
A36T A48C | 0.767
A36T G38C | 0.833
A36T G38A | 0.849
A36T G38T | 0.834
A36C A56T | 0.804
A36C A56G | 0.794
A36C A56C | 0.804
A36G T45A | 0.785
A36G T45C | 0.614
A36G T45G | 0.353
A36C G50A | 0.619
A36C G50C | 0.454
A36C G50T | 0.746
A36T | 0.843
A36G | 0.862

Variant | fraction ligated
A36T G55C | 0.817
A36T G55T | 0.836
A36T G55A | 0.842
A36G T49C | 0.4
A36G T49A | 0.725
A36G T49G | 0.761
A36T G50C | 0.467
A36T G50T | 0.775
A36T G50A | 0.642
A36T G46C | 0.787
A36T G46A | 0.818
A36T G46T | 0.791
A36C A57C | 0.813
A36C A57G | 0.816
A36C A57T | 0.844
A36G G47A | 0.764
A36G G47T | 0.0714
A36G G47C | 0.0195
A36C G46T | 0.778
A36C G46A | 0.793
A36C G46C | 0.784
A36C G47A | 0.81
A36C G47C | 0.224
A36C G47T | 0.356

Variant | fraction ligated
A36G G46A | 0.836
A36G G46T | 0.825
A36G G46C | 0.803
A36C T49G | 0.798
A36C T49A | 0.767
A36C T49C | 0.712
A36T C42A | 0.834
A36T C42G | 0.835
A36T C42T | 0.856
A37C G38C | 0.818
A37C G38A | 0.836
A36T G47C | 0.233
A36T G47T | 0.383
A36T G47A | 0.8
A36G A56G | 0.814
A36G A56C | 0.773
A36G A56T | 0.873
A37C C40G | 0.809
A37C C40A | 0.82
A37C C40T | 0.858
A36G A57T | 0.878
A36G A57G | 0.88
A36G A57C | 0.863
A37C A56G | 0.784

Variant | fraction ligated
A37C A56T | 0.804
A37C A56C | 0.818
A36T T49G | 0.797
A36T T49C | 0.742
A36T T49A | 0.797
A36C C42G | 0.839
A36C C42A | 0.852
A36C C42T | 0.889
A36C C40A | 0.804
A36C C40T | 0.818
A36C C40G | 0.818
A36G G55T | 0.809
A36G G55C | 0.773
A36G G55A | 0.867
A36G C40G | 0.841
A36G C40A | 0.829
A36G C40T | 0.861
A37C A57T | 0.831
A37C A57C | 0.819
A37C A57G | 0.838
A36G G38C | 0.846
A36G G38T | 0.806
A36G G38A | 0.828
A36C T44C | 0.815

Variant | fraction ligated
A36C T44G | 0.827
A36C T44A | 0.827
A36C T45A | 0.771
A36C T45C | 0.753
A36C T45G | 0.362
A36G A39T | 0.815
A36G A39C | 0.791
A36G A39G | 0.862
A36T T43A | 0.841
A36T T43G | 0.812
A36T T43C | 0.814
A36T A56T | 0.823
A36T A56C | 0.797
A36T A56G | 0.795
A36G G50A | 0.41
A36G G50T | 0.751
A36G G50C | 0.117
A36C T43A | 0.82
A36C T43G | 0.797
A36C T43C | 0.806
A36T C40T | 0.83
A36T C40G | 0.824
A36T C40A | 0.823
